Data as given in article PMC11882444 (2025).

Target: LHC (LSD1-HDAC-CoREST complex) (Homo sapiens, UniProt O60341, UM171 and InsP6 present)
Test: dose-response titration of fluorescein-LHC

B1: KBTBD4 (protein)
chain: MKGGNADSWQREKLASMESPEEPGASMDENYFVNYTFKDRSHSGRVAQGIMKLCLEEELFADVTISVEGREFQLHRLVLSAQSCFFRSMFTSNLKEAHNRVIVLQDVSESVFQLLVDYIYHGTVKLRAEELQEIYEVSDMYQLTSLFEECSRFLARTVQVGNCLQVMWLADRHSDPELYTAAKHCAKTHLAQLQNTEEFLHLPHRLLTDIISDGVPCSQNPTEAIEAWINFNKEEREAFAESLRTSLKEIGENVHIYLIGKESSRTHSLAVSLHCAEDDSISVSGQNSLCHQITAACKHGGDLYVVGGSIPRRMWKCNNATVDWEWCAPLPRDRLQHTLVSVPGKDAIYSLGGKTLQDTLSNAVIYYRVGDNVWTETTQLEVAVSGAAGANLNGIIYLLGGEENDLDFFTKPSRLIQCFDTETDKCHVKPYVLPFAGRMHAAVHKDLVFIVAEGDSLVCYNPLLDSFTRLCLPEAWSSAPSLWKIASCNGSIYVFRDRYKKGDANTYKLDPATSAVTVTRGIKVLLTNLQFVLA
- Kd: 13 nM
